Experimental data: patent US20100062978A1 (UNIVERSITY OF TOKYO, published 2010)
Each block holds one binder with its values, some of them ahead of it.

Legend:
[1] = target: T1, GST-ERK2 fusion protein (glutathione S-transferase fused with human ERK2, from pGEX-4T-1) (human, UniProt P28482 1-360); assay: GST-ERK2 pull-down from HEK293 lysate, immunoblot
T1 construct: Expressed in E. coli BL21 and immobilised on Glutathione Sepharose beads for the pull-down; not shown: glutathione S-transferase (GST) encoded by the vector pGEX-4T-1

[2] = target: T2, wild-type human EGFR (erbB1) (human, UniProt P00533 25-1210); assay: co-immunoprecipitation with anti-EGFR antibody from HEK293 lysate, immunoblot
T2 construct: whole, on cells; precipitated from cell lysates with anti-EGFR antibody; also called HER1; wild-type EGFR
Protocol: Before EGF treatment, Saos-2 cell or HEK293 cell was kept serum deficiency state for 24 hours.

T1 sequence (P28482 whole entry, the tested form may be a part): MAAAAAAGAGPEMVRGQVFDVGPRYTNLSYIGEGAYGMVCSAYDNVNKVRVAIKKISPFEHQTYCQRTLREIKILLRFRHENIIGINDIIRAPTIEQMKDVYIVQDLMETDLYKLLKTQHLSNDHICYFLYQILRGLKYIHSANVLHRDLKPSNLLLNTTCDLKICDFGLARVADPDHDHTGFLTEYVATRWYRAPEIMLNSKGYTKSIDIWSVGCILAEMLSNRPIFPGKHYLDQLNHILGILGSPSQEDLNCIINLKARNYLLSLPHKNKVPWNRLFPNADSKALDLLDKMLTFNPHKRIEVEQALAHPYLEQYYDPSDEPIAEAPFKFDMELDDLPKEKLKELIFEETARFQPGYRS

binding result [1]: no binding
B1: 1-236 variant of human SNT-2, C-terminal FLAG-tag (other)
chain: MGSCCSCLNRDSVPDNHPTKFKVTNVDDEGVELGSGVMELTQSELVLHLHRREAVRWPYLCLRRYGYDSNLFSFESGRRCQTGQGIFAFKCSRAEEIFNLLQDLMQCNSINVMEEPVIITRNSHPAELDLPRAPQPPNALGYTVSSFSNGCPGEGPRFSAPRRLSTSSLRHPSLGEESTHALIAPDEQSHTYVNTPASEDDHRRGRHCLQPLPEGQAPFLPQARGPDQRDPQVFLQ
notes: C-terminal-cut-off variant expressed in HEK293 cells; not shown: C-terminal FLAG-tag

binding result [2]: no binding
B2: 186-328 variant of human SNT-2 (PTB-domain-deleted), C-terminal FLAG-tag (other)
chain: DEQSHTYVNTPASEDDHRRGRHCLQPLPEGQAPFLPQARGPDQRDPQVFLQPGQVKFVLGPTPARRHMVKCQGLCPSLHDPPHHNNNNEAPSECPAQPKCTYENVTGGLWRGAGWRLSPEEPGWNGLAHRRAALLHYENLPPL
notes: not shown: C-terminal FLAG-tag
